The source of these data is the supplement of paper PMC12042874.

± gives the uncertainty stated by the source.

The nature of the data set: amyloid nucleation score (Sup35N fusion, yeast selection) (log enrichment); library NNK3; higher = more nucleation; inactive = no reads after selection. Put shortly: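 Plasmid inserts were Illumina-sequenced at input and output from psi-negative yeast expressing Sup35N fused to peptides of 20 random codons. The yeast were induced with 100 μM copper sulfate for 24 hours and grown 7 days at 30°C on medium lacking adenine and uracil, and sequences with under 100 input reads were excluded. Nucleation score is the DiMSum log enrichment of output over input reads, centred on the mode score of non-aggregating sequences.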
Take THDVFSSVMLGSFSLSSTTN: the amyloid nucleation score entry was “inactive”. The value for THISQNLQSVVHLYVLRKVV was “inactive”; that for THLCIEMLRM was -0.297 ± 0.88; that for THRFGMVR was “inactive”. The value for THSGQEEWLVNKDAS was “inactive”; that for THTSAKDHRVDWLSQL was “inactive”. For the substance TICLSRVTYVSRQEWGSASV, the amyloid nucleation score was -0.023 ± 1. For TIEFWGRVAGFLLM the value was “inactive”. The value for TIFGDCAEYSYVVLFINLFI was 2.1 ± 0.098; that for TIIMR was “inactive”; that for TIMETALDLSMHPMNVH was “inactive”. For TIPYFQYDVFHKEDNWTGML, the amyloid nucleation score entry was “inactive”. Turning to TIVNGNVEFGMKLEWEHGCI, the amyloid nucleation score result was “inactive”.

Take TKADEHYESIYTLCCHFVSP: the amyloid nucleation score entry was “inactive”.

On to TKCNDYFNVSRYSSLDS, for which the amyloid nucleation score result was “inactive”. For TKDGHYA the value was “inactive”. For TKDIMHTSSLVRWTHREAWC the value was “inactive”; for TKFNG, 0.709 ± 0.19. Take TKHETSLVCRLLTETRFKNI: the amyloid nucleation score result is “inactive”. TKNDRN: the amyloid nucleation score entry was “inactive”. For TKSRIWG the value was “inactive”; for TLALSKSMMYQMVINPAIY, “inactive”.

With TLCLQKHPSFGDYIFG, the amyloid nucleation score result was “inactive”. The value for TLCMVQRSRVVSLLSVGRIL was -0.223 ± 0.55; that for TLCQREPG was 0.209 ± 0.71; that for TLDVR was “inactive”.

With TLFADNAVQIVLERSLRGCG, the amyloid nucleation score result was “inactive”. The value for TLFQSFRELLRNGVFCLRTM was “inactive”; that for TLGDGRPLCLREEWEGPVTC was “inactive”.

With TLGMLHRNWYYLLF, the amyloid nucleation score result was “inactive”. For TLIFRLYLRRNCNAVFCFVV the value was 0.084 ± 0.56; for TLLLIVDNGVNPSLKEMMLL, “inactive”. Substance TLLLMSWHFGYMRAQF displayed an amyloid nucleation score of 3.14 ± 0.05. The value for TLLTMTDFAIKFSHKQPGYV was “inactive”; that for TLMYFILYYIGLYPE was “inactive”; that for TLNIRCRRFVFVWDATNSV was 2.88 ± 0.064. For TLRNGQMTIGYCSKGISEVG the value was “inactive”. For TLSCSDFTVLGTCDAVEGIN the value was “inactive”; for TLSSKDVYMFLDS, “inactive”.

In the case of TLTLAFARGDAYPSIARLV, the amyloid nucleation score entry was “inactive”.

On to TLVLVTRQLSFCRMDSRIEF, for which the amyloid nucleation score entry was “inactive”. For TLYFFKYFWMFVVMCKINKA the value was “inactive”. Turning to TMAYGAPLPHSTSYYITIMS, the amyloid nucleation score entry was “inactive”. The value for TMCKRLVVTYQLAYWRVSV was “inactive”; that for TMHGAQFCD was “inactive”; that for TMQEGRLSSWYSTVFFS was -0.073 ± 0.43. For TMSGWFNGCVYGVSAIHSSD the value was “inactive”; for TMVICLSLLRNMILHF, “inactive”; for TNDAGHVWYSLCLRIFNTNV, “inactive”. The value for TNDLYEFVPRAVILTSICLL was “inactive”; that for TNGKPFYFPLAVMMSG was “inactive”; that for TNRVIVSMRLYVMDLYYCRT was “inactive”. Consider TNYWNHVVYVTGNVCDP, for which the amyloid nucleation score entry was “inactive”. Take TPKWILMERNTSRGWATSA: the amyloid nucleation score entry was “inactive”. For TPLADN the value was -0.224 ± 0.73; for TPRFMVGAVATEGAHIFLRV, “inactive”. Take TPVMRSVNMMVLKTI: the amyloid nucleation score entry was “inactive”. For TPWSYASLVLSVQCFGRLIM the value was “inactive”; for TQFIELS, 0.199 ± 0.32. For TQRICRWLMVVWCDGRETHE the value was 0.403 ± 0.35; for TRFTACGYRKSCYWWIVF, “inactive”. Consider TRHIGVGRY, for which the amyloid nucleation score result is “inactive”.

Regarding TRHLMLVLSWFLHRKNISRG, the amyloid nucleation score entry was “inactive”.

Regarding TRIGSTEKTEQSVWD, the amyloid nucleation score is -0.198 ± 0.75.

Turning to TRILGYIFGAVSIVWLGVER, the amyloid nucleation score result was “inactive”.

TRLKFTLDWELM returned an amyloid nucleation score of 1.06 ± 0.098. The value for TRLLWSAEFGEGNDMTSLKF was 0.073 ± 0.87; that for TRMWYGLLAENGCAYLGCNW was “inactive”; that for TRRPAQFVGPI was 0.645 ± 0.16. For TRSIVY the value was “inactive”; for TRVHWHR, 1.63 ± 0.1. For TSAMSYFGDIYWCRKFRRVG the value was “inactive”; for TSCQLWETIIKMLDHARTGA, “inactive”; for TSDIFTSRYILAIDPRMNWV, “inactive”. For the substance TSINFSMAIDLRSHQLERTV, the amyloid nucleation score was found to be 0.479 ± 0.31.

On to TSLLILRCSGE, for which the amyloid nucleation score result was “inactive”.

In the case of TSLVFLLGLSMFM, the amyloid nucleation score result is “inactive”. For TSNIHY the value was “inactive”. The value for TSNTGVSVSRFTFSVDRSVG was “inactive”.

Take TSTELFRSGSVLRKPRMSSA: the amyloid nucleation score is -0.255 ± 1.1. For TSTSIVSYGTWFSGFVLNVS the value was 2.29 ± 0.076. The value for TSYNCCVVHSVRTAIFARG was “inactive”. TSYVEVGFLVSKYQTWWAVN: the amyloid nucleation score result is “inactive”. The value for TTCCRFYREIKFFRIS was “inactive”; that for TTGPYLSATEHTVGHLR was “inactive”; that for TTILLTFDTGTIS was “inactive”. As for TTLGHTPPVCFSDPWAQARA, the amyloid nucleation score result is “inactive”. For TTLVGHASPVKAMTGTFTWH the value was “inactive”; for TTMVIRNAMCNILNVVRKRR, 0.203 ± 0.33; for TTSRNRIGRGLCGLAS, -0.115 ± 0.48. The value for TTVMLTKLYMFEGPNRFTAL was 0.961 ± 0.084; that for TVARMRFSTMTRDAQCVGRL was 0.107 ± 0.9. The value for TVCVWSVKVMP was -0.492 ± 0.66; that for TVHKVSGKDQGWMYGHMLFC was “inactive”; that for TVLFEIYMNEVMNGFLICST was “inactive”. TVLLYLNDMVNNNFGFEGSF returned an amyloid nucleation score of 0.647 ± 0.34.

TVLVGDMVVR: the amyloid nucleation score entry was “inactive”. The value for TVLYWRLRQMMRFRLFSSNW was “inactive”. For TVMDVLCECYMIVFRG the value was 0.875 ± 0.13. As to TVMLWAWEGRWYVRFVSPDR, the amyloid nucleation score entry is “inactive”.

For the substance TVMPIYQCSIGVKFSCDSAK, the amyloid nucleation score came to 1.53 ± 0.072. For the substance TVNPMIVDPCNW, the amyloid nucleation score entry is “inactive”.

As to TVPIMNVPD, the amyloid nucleation score was -0.428 ± 0.8. For TVSTE the value was “inactive”; for TVSTNDFSL, -0.61 ± 0.9.

The substance TVTGFTCNGCFHAVNSVVLT showed an amyloid nucleation score of 0.002 ± 0.8. Regarding TVTHLFGHRVGMSLVFNSTY, the amyloid nucleation score result is “inactive”. The value for TVTVQYTG was “inactive”; that for TVTWFDINCMVGFLY was 0.431 ± 0.68. The value for TVVDLLVRYSAIGSCVFSVT was “inactive”; that for TVYIAYTCVAVRSHSEHLFD was “inactive”; that for TVYSTVSRDMNDKHFAGSTG was “inactive”. The value for TVYYTLFATIWMLGVFFLNN was “inactive”; that for TWIMALLMILFNKVFVSSTR was “inactive”. The substance TWRYWFKLESYNVYWRLLPA displayed an amyloid nucleation score of -0.582 ± 1.

In the case of TYEEGRRQCSRAPMDSYVQS, the amyloid nucleation score entry was “inactive”. For TYEST the value was “inactive”. For TYFRHYRKRSRSTSDLYLRL the value was “inactive”. The value for TYGNENSSLILSCTCYIMLS was 2.41 ± 0.082.

As for TYNRHSFLA, the amyloid nucleation score result was “inactive”. The value for TYRCYELVGDTVC was “inactive”; that for TYRRFMDNNGVIILILPNER was 1.74 ± 0.072.

As for TYTSESWVHLVKYGSLNELE, the amyloid nucleation score entry is “inactive”. For TYYTSRYL, the amyloid nucleation score entry was “inactive”. The value for VACITLCNIVQSIQMSIIMK was 1.45 ± 0.061; that for VAGLSRHIRIFHYYHSRARF was “inactive”. Take VALLDSHGKWFMLGQFLNLK: the amyloid nucleation score result is “inactive”. For VALVVHSLR the value was “inactive”; for VCGDRKIFNHADVVYRMGRS, “inactive”; for VCGILAISGLLT, “inactive”. For VCIWSIETNVCSGCVKIKGF the value was “inactive”; for VCLKVQWDYCIRLWVGMSYD, “inactive”; for VCLLIRPID, “inactive”.
